{"source": "paper PMC12813973", "about": "“Consequences of Peptide Macrocyclization Revealed by Virus-Inspired β‑Hairpin Mimetics” (ACS Chemical Biology, 2025)", "binders": {"B1": {"name": "STAT1, P42224 (protein)", "chain": "SQWYELQQLDSKFLEQVHQLYDDSFPMEIRQYLAQWLEKQDWEHAANDVSFATIRFHDLLSQLDDQYSRFSLENNFLLQHNIRKSKRNLQDNFQEDPIQMSMIIYSCLKEERKILENAQRFNQAQSGNIQSTVMLDKQKELDSKVRNVKDKVMCIEHEIKSLEDLQDEYDFKCKTLQNREHETNGVAKSDQKQEQLLLKKMYLMLDNKRKEVVHKIIELLNVTELTQNALINDELVEWKRRQQSACIGGPPNACLDQLQNWFTIVAESLQQVRQQLKKLEELEQKYTYEHDPITKNKQVLWDRTFSLFQQLIQSSFVVERQPCMPTHPQRPLVLKTGVQFTVKLRLLVKLQELNYNLKVKVLFDKDVNERNTVKGFRKFNILGTHTKVMNMEESTNGSLAAEFRHLQLKEQKNAGTRTNEGPLIVTEELHSLSFETQLCQPGLVIDLETTSLPVVVISNVSQLPSGWASILWYNMLVAEPRNLSFFLTPPCARWAQLSEVLSWQFSSVTKRGLNVDQLNMLGEKLLGPNASPDGLIPWTRFCKENINDKNFPFWLWIESILELIKKHLLPLWNDGCIMGFISKERERALLKDQQPGTFLLRFSESSREGAITFTWVERSQNGGEPDFHAVEPYTKKELSAVTFPDIIRNYKVMAAENIPENPLKYLYPNIDKDHAFGKYYSRPKEAPEPMELDGPKGTGYIKTELISVSEVHPSRLQTTDNLLPMSPEEFDEVSRIVGSVEFDSMMNTV"}}, "key": {"[1]": {"target": "T1, 018 minimal fragment (peptide 1) 11-30 (Vaccinia virus), P17356", "T1 sequence (P17356 11-30)": "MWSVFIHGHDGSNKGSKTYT"}, "[2]": {"target": "T1, 018 minimal fragment (peptide 1) 11-30 …", "experiment": "ITC"}, "[3]": {"target": "T1, 018 minimal fragment (peptide 1) 11-30 …", "experiment": "competition"}}, "note": "Read-outs that look alike come from different tables or passages of the source.", "data": [{"binder": "B1", "values": [{"measurement": "Kd", "setting": "[1]", "value": 73, "unit": "nM"}, {"measurement": "Kd", "setting": "[2]", "value": 533, "unit": "nM"}, {"measurement": "IC50", "setting": "[3]", "value": 4300, "unit": "nM"}]}]}
